This note sets out measurements from patent US20030199671A1, “Binding molecules for Fc-region polypeptides” (priority 2001, published 2003).

Where two headings read alike, the source gives them in different places.

Holding throughout (assay type): binding
Test [1] concerns the target IgG4 (Homo sapiens, UniProt P01861). Set-up: all human subtypes derived from myeloma patients; purchased Calbiochem 400126; host or cells: myeloma patients. The method, boiled down:
(§1)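 Read-out is A280 of unbound IgG (1.4 mg/ml extinction coefficient), with percent bound derived against non-filtered or negative controls. Targets were incubated with immobilized peptides in PBST or TBST for 1-1.5 h at room temperature. Hydrolyzed Sepharose and immobilized Protein A serve as negative and positive controls.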

Test [2] concerns the target T1, human IgG2 (Homo sapiens, UniProt P01859).
T1 construct: all human subtypes derived from myeloma patients; purchased Calbiochem 400122; host or cells: myeloma patients
The gist of the method: as §1

Test [3] addresses T2, human IgG1 (Homo sapiens, UniProt P01857).
T2 construct: all human subtypes derived from myeloma patients; purchased Calbiochem 400120; host or cells: myeloma patients
The method, boiled down:
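Static binding, peptide resin + IgG, 1-1.5 h RT with shaking, PBST pH 7.2 or TBST pH 7.5. Flow-through read at A280 vs buffer blank; % bound = control minus unbound. Elution at pH 8.5 bicarbonate and/or pH 4.0 citrate, 30-60 min.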

The subject of test [4] is human IgG. The gist of the method: (§2)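 Steps: dilute IgG in PBST or TBST; incubate with immobilized peptide 1-1.5 h, RT; collect unbound by centrifugation; measure A280; wash three times; elute with 0.1 M sodium bicarbonate pH 8.5 and/or 0.1 M sodium citrate pH 4.0 for 30-60 min and quantitate.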
The test system of test [5] is bovine IgG. The method, boiled down: as §2
Test [6] relates to mouse IgG. The gist of the method: as §2
Test [7] concerns goat IgG. The gist of the method:
as §2

Test [8] concerns the target IgG3 (Homo sapiens, UniProt P01860). More on the design: all human subtypes derived from myeloma patients; purchased Calbiochem 400124; host or cells: myeloma patients. The procedure: In addition, the following targets, all unfractionated IgGs, were also evaluated with selected immobilized peptides for species specificity characterization in a similar format: human IgG, goat IgG, bovine IgG, and mouse IgG (Sigma, product nos. I4506, I5256, I5506, and I15381, respectively). In addition, 10 μl aliquots of hydrolyzed NHS-activated Sepharose 4 Fast Flow (Amersham Pharmacia Biotech, product no. 17-0906-01) and immobilized recombinant Protein A (RepliGen Corp., product no. IPA-400) were also assayed as negative and positive controls. IgG targets were diluted into 10 mM phosphate buffer containing 150 mM NaCl and 0.01% Tween 20, pH 7.2 (PBST) or 50 mM Tris buffer containing, 150 mM NaCl and 0.01% Tween-20, pH 7.5 (TBST). Batch (static) binding and elution studies were conducted in a 96-well assay filterplate (Millipore MultiScreen-HV, with 0.45 μm Durapore membrane, product no. MAHVN4510). The target was allowed to incubate with the resin for 1-1.5 hours with shaking at room temperature. Unbound target was collected by centrifugation of samples from the assay plate directly into a low-UV absorbing 96-well collection plate (Costar, product no. 3635 or Greiner, product no. 655801). The unbound target was then quantitated by reading the absorbance at 280 nm (normalized to 1 cm pathlength, 1.4 mg/ml A280 extinction coefficient) of the collection plate on a microplate spectrophotometer (Molecular Devices Corp., SPECTRAmax PLUS) against a buffer blank.
The percentage bound target was determined by subtracting the mass determined as unbound from the corresponding condition's control values (control non-filtered added directly to the collection plate and/or the negative control). The assay plate was washed (3×) with 200 μl of binding buffer by vacuum filtration followed by addition of 100 μl of various elution conditions (e.g.: 0.1 M sodium bicarbonate buffer, pH 8.5 and/or 0.1 M sodium citrate buffer, pH 4.0). After a 30-60 minute incubation with shaking at room temperature, the eluted target was collected by centrifugation of the assay plate into another collection plate and quantitated in a similar manner. Percent elution of total load was then determined to characterize elution recovery efficiency under various conditions. The assay plate was then washed (3×) with 200 μl of binding buffer by vacuum filtration followed by addition of a resin cleaning condition (e.g., 0.1M CAPS buffer (3-[Cyclohexylamino]-1-propane-sulfonic acid), pH 11.5, to regenerate the resin for re-use. Percentage mass balance determination was calculated to be 90-100% on average.

The mark [9] stands for this setting: Table 9, immobilized peptide, 5.0 mg/ml resin load.
Where [10] appears, read: Table 13, average ligand density 1.8 μM/ml.
Where [11] appears, read: Table 14, average ligand density 1.8 μM/ml.

T1 sequence (P01859 1-326 isoform P01859-1): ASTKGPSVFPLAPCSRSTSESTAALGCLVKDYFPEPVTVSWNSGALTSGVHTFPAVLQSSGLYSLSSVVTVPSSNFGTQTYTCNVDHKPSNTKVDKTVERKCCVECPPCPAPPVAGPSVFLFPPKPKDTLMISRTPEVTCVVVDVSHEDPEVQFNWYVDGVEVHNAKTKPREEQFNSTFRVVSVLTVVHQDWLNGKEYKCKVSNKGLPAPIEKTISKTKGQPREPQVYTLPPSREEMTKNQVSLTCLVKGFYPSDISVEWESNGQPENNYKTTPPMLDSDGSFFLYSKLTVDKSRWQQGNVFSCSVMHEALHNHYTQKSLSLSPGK
T2 sequence (P01857 1-330 isoform P01857-1): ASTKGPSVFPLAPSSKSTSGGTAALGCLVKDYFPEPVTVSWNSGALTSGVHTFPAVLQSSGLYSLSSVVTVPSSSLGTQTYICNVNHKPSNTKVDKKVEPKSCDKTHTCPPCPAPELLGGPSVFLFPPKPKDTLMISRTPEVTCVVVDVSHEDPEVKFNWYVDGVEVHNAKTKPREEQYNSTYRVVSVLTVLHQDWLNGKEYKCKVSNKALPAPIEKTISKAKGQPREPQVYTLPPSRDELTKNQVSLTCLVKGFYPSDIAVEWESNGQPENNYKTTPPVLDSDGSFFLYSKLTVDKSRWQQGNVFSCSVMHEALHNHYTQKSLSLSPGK
Sequence of IgG3 (P01860 1-377 isoform P01860-1): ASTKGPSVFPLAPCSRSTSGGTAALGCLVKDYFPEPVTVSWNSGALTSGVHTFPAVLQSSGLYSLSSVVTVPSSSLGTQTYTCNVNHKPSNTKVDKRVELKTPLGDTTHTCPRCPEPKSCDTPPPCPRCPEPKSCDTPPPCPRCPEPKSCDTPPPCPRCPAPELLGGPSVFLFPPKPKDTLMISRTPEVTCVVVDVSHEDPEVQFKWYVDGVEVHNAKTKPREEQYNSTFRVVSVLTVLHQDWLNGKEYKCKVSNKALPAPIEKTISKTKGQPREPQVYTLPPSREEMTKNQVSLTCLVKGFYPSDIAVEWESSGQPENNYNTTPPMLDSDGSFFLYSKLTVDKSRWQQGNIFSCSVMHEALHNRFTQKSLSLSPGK
Sequence of IgG4 (P01861 1-327 isoform P01861-1): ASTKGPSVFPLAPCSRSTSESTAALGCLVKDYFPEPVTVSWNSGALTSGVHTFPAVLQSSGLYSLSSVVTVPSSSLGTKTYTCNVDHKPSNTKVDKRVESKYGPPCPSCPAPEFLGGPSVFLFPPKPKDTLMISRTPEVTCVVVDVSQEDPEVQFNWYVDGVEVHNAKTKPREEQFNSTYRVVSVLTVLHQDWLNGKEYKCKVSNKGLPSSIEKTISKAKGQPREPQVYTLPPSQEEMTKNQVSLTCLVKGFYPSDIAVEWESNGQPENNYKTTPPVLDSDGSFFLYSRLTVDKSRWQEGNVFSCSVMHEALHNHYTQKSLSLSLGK

Take “Ac-AGPVDCKHHFWWCYWNGTPGPEGGGK-NH2 (not fully specified (bridges); printed as Ac-AGPVDCKHHFWWCYWNGTPGPEGGGK-NH2; cysteine pairing not given here) [DX251]”: the “% IgG Capture - Batch Binding, Human IgG4” value in test [1] (setting [9]) amounted to 1%. In test [2] (setting [9]), the “% IgG Capture - Batch Binding, Human IgG2” value was 14%. In addition, the “% IgG Capture - Batch Binding, Human IgG1” value in test [3] (setting [9]) was found to be 6%. In test [4] (Table 11, unfractionated IgG), the “% IgG Capture - Batch Binding, Human IgG” value is 4%. In addition, the “% IgG Capture - Batch Binding, Bovine IgG” value in test [5] (Table 11, unfractionated IgG) is recorded as 0%. For the same substance, the “% IgG Capture - Batch Binding, Mouse IgG” value in test [6] (Table 11, unfractionated IgG) is recorded as 4%. Further, the “% IgG Capture - Batch Binding, Goat IgG” value in test [7] (Table 11, unfractionated IgG) amounted to 0%. In addition, the “% IgG Capture - Batch Binding, Human IgG3” value in test [8] (setting [9]) came to 5%.
As for “Ac-GDNPMCWKKSWWEDAYCINHGTPGPEGGGK-NH2 (not fully specified (bridges); printed as Ac-GDNPMCWKKSWWEDAYCINHGTPGPEGGGK-NH2; cysteine pairing not given here) [DX596]”, in test [1] (Table 13), the “hIgG4 elution pH 2.5 (% of Total Load)” value stood at 44%, the “hIgG4 elution pH 3.5 (% of Total Load)” value was 61%, the “hIgG4 elution pH 4.5 (% of Total Load)” value came to 17% and the “hIgG4 elution pH 5.5 (% of Total Load)” value is 2%. Moreover, in test [1] (Table 13), the “hIgG4 elution pH 9.0 (% of Total Load)” value is given as 55% and the “hIgG4 elution pH 9.5 (% of Total Load)” value was found to be 67%. In addition, in test [1] (setting [10]), the “hIgG4 Bound (% of Total Load)” value is given as 65%. In addition, in test [2] (Table 13), the “hIgG2 elution pH 2.5 (% of Total Load)” value is on record as 71%, the “hIgG2 elution pH 3.5 (% of Total Load)” value amounted to 92%, the “hIgG2 elution pH 4.5 (% of Total Load)” value was determined as 44% and the “hIgG2 elution pH 5.5 (% of Total Load)” value amounted to 3%. Moreover, in test [2] (Table 13), the “hIgG2 elution pH 9.0 (% of Total Load)” value was found to be 58% and the “hIgG2 elution pH 9.5 (% of Total Load)” value worked out at 64%. Also, the “hIgG2 Bound (% of Total Load)” value in test [2] (setting [10]) is 81%. In test [3] (Table 13), the “hIgG1 elution pH 2.5 (% of Total Load)” value came out at 66%, the “hIgG1 elution pH 3.5 (% of Total Load)” value was 78%, the “hIgG1 elution pH 4.5 (% of Total Load)” value is 61% and the “hIgG1 elution pH 5.5 (% of Total Load)” value is on record as 3%. In addition, in test [3] (Table 13), the “hIgG1 elution pH 9.0 (% of Total Load)” value was 62% and the “hIgG1 elution pH 9.5 (% of Total Load)” value is on record as 58%. Also, the “hIgG1 Bound (% of Total Load)” value in test [3] (setting [10]) worked out at 87%. For the same substance, the “% IgG Capture - Batch Binding, Human IgG” value in test [4] (setting [11]) is given as 72%. The “% IgG Capture - Batch Binding, Bovine IgG” value in test [5] (setting [11]) amounted to 5%. In addition, the “% IgG Capture - Batch Binding, Mouse IgG” value in test [6] (setting [11]) worked out at 5%. Further, the “% IgG Capture - Batch Binding, Goat IgG” value in test [7] (setting [11]) came to 8%. For the same substance, in test [8] (Table 13), the “hIgG3 elution pH 2.5 (% of Total Load)” value amounted to 0%, the “hIgG3 elution pH 3.5 (% of Total Load)” value is listed as 0%, the “hIgG3 elution pH 4.5 (% of Total Load)” value is recorded as 0% and the “hIgG3 elution pH 5.5 (% of Total Load)” value is 0%. In test [8] (Table 13), the “hIgG3 elution pH 9.0 (% of Total Load)” value is 0% and the “hIgG3 elution pH 9.5 (% of Total Load)” value is recorded as 0%. In addition, the “hIgG3 Bound (% of Total Load)” value in test [8] (setting [10]) amounted to 0%.
